The record followed here is publication PMC10665427, “The heat shock protein LarA activates the Lon protease in response to proteotoxic stress” (Nature Communications, 2023).

First the molecules themselves.
B1: N-terminally 3xFLAG-tagged LarA [C. crescentus] / Lon, endogenous [C. crescentus (endogenous in WT cells)] (parent complex)
chain 1: MTPSTQHSRPLTSEAFAALGAPALVYVRPIKAAEILADAPEGVEDLDLSPDQTLYAVCRADGERLAVLIDRDTAIAAALAHELAPVSVH
chain 2: MSELRTLPVLPLRDIVVFPHMVVPLFVGRDKSVRALEEVMRGDKQILLVTQKNSADDDPAPGDIFEVGVLATVLQLLKLPDGTVKVLVEGKARAAVVSFTDQESYYEAQIGEVSEDDGAGPEAEALSRAVVEQFENYVKLNKKVPPEALASIPQIAEPGKLADSIAAHLSVKIGDKQNLLEIFDVVKRLEKVFALMEGEISVLQVEKKIRSRVKRQMEKTQREYYLNEQMKAIQRELGDPDDARDELIDLEKRIKKTKLSKEARTKAESELKKLRNMSPMSAESTVVRNYLDWLLSIPWGKAKTKKIDLVESEGILDADHYGLEKVKERILEYLAVQARTNSLKGPILCLVGPPGVGKTSLGKSIAKATGREFVRMSLGGVRDEAEIRGHRRTYIGSMPGKVVQSMKKAKTTNAFVLLDEIDKMGSDYRGDPASALLEVLDPSQNSTFGDHYLEVDYDLSQVMFVTTANSLNMPQPLLDRMEIIRIPGYTEDEKLEIAKRHILPKLAKDHGLKPAEFIVPDKAIRDLIRYYTREAGVRSLERELGALARKTVRDLAREKVASITIDDERLAKYAGVKKYRYGETDEVDQVGIVTGLAWTEFGGDILTIEAVKMPGKGRMQITGNLKDVMKESIAAANSYVRSRALQFGIKPPVFEKTDVHIHVPDGATPKDGPSAGIAMALAMVSVLTGIPIRKDIAMTGEITLRGRVTAIGGLKEKLLAALRSGVKTVLIPQENEKDLADVPQTVKDGLEIIPVSTVDEVLKHALTGPLTPVEWNEAEEPITTSAKKDDGDSDAMLTH

Variants of B1 are the subject of this assay. As to the kind of experiment: co-immunoprecipitation (α-FLAG IP, anti-Lon immunoblot quantified); WT cells, Pxyl-3xFLAG-larA variants induced one hour with xylose prior to cell lysis and IP; n = 3; parent: 4.5; read off a plot.
For the variant chain 1 MTPSTQHSRPLTSEAFAALGAPALVYVRPIKAAEILADAPEGVEDLDLSPDQTLYAVCRADGERLAVLIDRDTAIAAALAHELAPVSDD [chain 1 V88D, chain 1 H89D], the response was ~1 relative Lon level (vs VC = 1).
chain 1 MTPSTQHSRPLTSEAFAALGAPALVYVRPIKAAEILADAPEGVEDLDLSPDQTLYAVCRADGERLAVLIDRDTAIAAALAHELAPASAH [chain 1 V86A, chain 1 V88A]: the response was ~1.7 relative Lon level (vs VC = 1).
